Values of other authors, collected in article PMC3058932.

What was measured:
[1] = molecular target: GRP receptor (Rattus norvegicus) (UniProt P52500); experiment: rat brain membrane binding
[2] = molecular target: GRP receptor (Homo sapiens) (UniProt P30550); experiment: PC-3 membrane binding
UniProt P30550, sequence (P30550 whole entry): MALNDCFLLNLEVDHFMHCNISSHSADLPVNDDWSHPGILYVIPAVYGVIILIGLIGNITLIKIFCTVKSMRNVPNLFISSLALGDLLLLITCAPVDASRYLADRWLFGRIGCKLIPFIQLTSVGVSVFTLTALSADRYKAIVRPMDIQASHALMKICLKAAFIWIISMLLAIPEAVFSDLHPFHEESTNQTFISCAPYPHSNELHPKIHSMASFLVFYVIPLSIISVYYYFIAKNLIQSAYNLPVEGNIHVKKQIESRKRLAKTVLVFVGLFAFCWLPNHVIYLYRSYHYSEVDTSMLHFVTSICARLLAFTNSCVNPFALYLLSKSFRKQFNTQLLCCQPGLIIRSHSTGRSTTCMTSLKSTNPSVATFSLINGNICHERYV

UniProt P52500, sequence (P52500 whole entry): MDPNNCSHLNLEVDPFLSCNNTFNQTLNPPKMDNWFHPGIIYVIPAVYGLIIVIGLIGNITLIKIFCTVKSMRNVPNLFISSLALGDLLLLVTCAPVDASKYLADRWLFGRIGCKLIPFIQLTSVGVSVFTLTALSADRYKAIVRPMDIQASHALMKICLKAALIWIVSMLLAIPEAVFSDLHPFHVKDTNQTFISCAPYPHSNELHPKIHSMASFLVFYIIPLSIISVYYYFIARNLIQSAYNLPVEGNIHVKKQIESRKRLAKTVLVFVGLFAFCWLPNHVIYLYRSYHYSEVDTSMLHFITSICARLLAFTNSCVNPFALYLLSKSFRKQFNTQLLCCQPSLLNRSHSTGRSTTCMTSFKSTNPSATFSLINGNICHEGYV

bombesin (from UniProt P84214)
Ki [1]: 4.3 nM | Ki [2]: 1.7 nM
